Assay results taken from paper PMC5065051, “Genetic and Biochemical Approaches for In Vivo and In Vitro Assessment of Protein Oligomerization: The Ryanodine Receptor Case Study” (Journal of Visualized Experiments : JoVE, 2016).

How the values were obtained:
[1] = target: BT8, RyR2 extreme C-terminal domain (bait) (human); test: two-hybrid; GAL4 system in yeast; quantitative liquid culture β-Gal assay (ONPG), 30 °C; normalized against the positive control pVA3 + pTD1
[2] = target: the molecule itself; test: cross-linking; glutaraldehyde (0.0025% v/v, 0-60 min, RT) on HEK293 cell homogenate treated with dithiothreitol; SDS-PAGE and blot with Ab^cMyc

RyR2 N-terminal fragment (RyR2 residues 1 - 906), GAL4 fusions for yeast two-hybrid (from UniProt Q92736 1-906) (domain or fragment)
β-Gal activity, percent of the positive control (pVA3 + pTD1) [1]: < 10%

B1: RyR2 N-terminus domain (residues 1 - 906), cMyc-tagged (BT4L) or HA-tagged (AD4L), expressed in HEK293 (domain or fragment, human, UniProt Q92736 1-906, looked up)
chain: MADGGEGEDEIQFLRTDDEVVLQCTATIHKEQQKLCLAAEGFGNRLCFLESTSNSKNVPPDLSICTFVLEQSLSVRALQEMLANTVEKSEGQVDVEKWKFMMKTAQGGGHRTLLYGHAILLRHSYSGMYLCCLSTSRSSTDKLAFDVGLQEDTTGEACWWTIHPASKQRSEGEKVRVGDDLILVSVSSERYLHLSYGNGSLHVDAAFQQTLWSVAPISSGSEAAQGYLIGGDVLRLLHGHMDECLTVPSGEHGEEQRRTVHYEGGAVSVHARSLWRLETLRVAWSGSHIRWGQPFRLRHVTTGKYLSLMEDKNLLLMDKEKADVKSTAFTFRSSKEKLDVGVRKEVDGMGTSEIKYGDSVCYIQHVDTGLWLTYQSVDVKSVRMGSIQRKAIMHHEGHMDDGISLSRSQHEESRTARVIRSTVFLFNRFIRGLDALSKKAKASTVDLPIESVSLSLQDLIGYFHPPDEHLEHEDKQNRLRALKNRQNLFQEEGMINLVLECIDRLHVYSSAAHFADVAGREAGESWKSILNSLYELLAALIRGNRKNCAQFSGSLDWLISRLERLEASSGILEVLHCVLVESPEALNIIKEGHIKSIISLLDKHGRNHKVLDVLCSLCVCHGVAVRSNQHLICDNLLPGRDLLLQTRLVNHVSSMRPNIFLGVSEGSAQYKKWYYELMVDHTEPFVTAEATHLRVGWASTEGYSPYPGGGEEWGGNGVGDDLFSYGFDGLHLWSGCIARTVSSPNQHLLRTDDVISCCLDLSAPSISFRINGQPVQGMFENFNIDGLFFPVVSFSAGIKVRFLLGGRHGEFKFLPPPGYAPCYEAVLPKEKLKVEHSREYKQERTYTRDLLGPTVSLTQAAFTPIPVDTSQIVLPPHLERIREKLAENIHELWVMNKIELGWQYGP
notes: ryanodine receptor 2 (RyR2), human, residues 1-906; Two copies of the same stretch, each with ONE tag: in the co-IP cMyc-BT4L and HA-AD4L were co-expressed; in the cross-linking cMyc-BT4L was expressed alone; also called cMyc-BT4L; source: HEK293, transiently transfected (calcium phosphate), in lysate or homogenate
stoichiometry N [2]: 4
